# Measurements from patent US20230183379A1 (published 2023).
# B1: F12-IgG1 (IgG1 anti-TfR1 F12 antibody) (antibody, V domains shown)
# VH: QVQLQESGGGLVQPGGSLRLSCAASGFSFNTYTMHWVRQAPGKGLEWVADIAYDGSTKYYADSVKGRFTISRDNAKNSLYLQMNSLRAEDTAVYYCARDAVAGEGYFDLWGRGTLVTVSS
# VL: QSALTQDPAVSVALGQTVRITCQGDSLRSYYASWYQQLPGTAPKLLIYRNNQRPSGVPDRFSGSKSGTSASLAISGLRSEDEADYYCAAWDDSLSAWVFGGGTKLTVLG
# Molecular target: transferrin receptor 1 (TfR1), human (human, UniProt P02786 1-760)
# Test: FACS binding, Raji cells, 4 °C
# transferrin receptor 1 (TfR1), human, sequence (P02786 whole entry): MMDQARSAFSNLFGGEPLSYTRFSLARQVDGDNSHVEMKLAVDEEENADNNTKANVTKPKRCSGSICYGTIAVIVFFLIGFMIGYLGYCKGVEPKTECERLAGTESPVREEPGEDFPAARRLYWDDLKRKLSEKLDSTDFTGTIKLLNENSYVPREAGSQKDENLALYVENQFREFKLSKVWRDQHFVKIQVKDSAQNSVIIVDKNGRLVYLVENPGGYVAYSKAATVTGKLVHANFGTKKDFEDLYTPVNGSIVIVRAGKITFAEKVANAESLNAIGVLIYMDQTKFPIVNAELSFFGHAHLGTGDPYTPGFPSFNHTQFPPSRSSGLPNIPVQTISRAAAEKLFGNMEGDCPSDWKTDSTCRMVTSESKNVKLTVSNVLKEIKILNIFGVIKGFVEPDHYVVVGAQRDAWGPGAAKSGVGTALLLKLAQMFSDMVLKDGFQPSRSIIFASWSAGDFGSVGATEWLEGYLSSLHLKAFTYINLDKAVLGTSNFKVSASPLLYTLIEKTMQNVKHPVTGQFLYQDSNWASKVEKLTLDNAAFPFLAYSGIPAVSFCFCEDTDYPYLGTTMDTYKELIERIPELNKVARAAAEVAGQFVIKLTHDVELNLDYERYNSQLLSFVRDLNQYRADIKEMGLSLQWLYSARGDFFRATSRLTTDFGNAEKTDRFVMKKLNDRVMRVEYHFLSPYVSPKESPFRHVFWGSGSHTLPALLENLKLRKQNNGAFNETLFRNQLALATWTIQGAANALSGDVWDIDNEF
binder,measurement,value
B1,EC50,1.13 nM
